Assay results taken from PMC10477244.

Biological target: SARS-CoV-2 virus particles (spike presumed target) (SARS-CoV-2 (isolate not in material)) (UniProt P0DTC2)

| Sequence | binding signal |
| --- | --- |
| GGTATTGAGGGTCGCATCGTAATAGCGCATGTTGTGAGGCAGGCGCGAATCAGCTCGTGAGATGGCTCTAACTCTCCTCT [aptamer T (Apt@T2)] | 0.74 A450 |
| GGTATTGAGGGTCGCATCGTTACTGGACCAAACAGCACAAAGGACGCCCATAAACCCGGATGGCTCTAACTCTCCTCT [aptamer R (Apt@R2)] | 0.83 A450 |
